Experimental findings from patent US20100197009A1 are described below.

Experiment [1] deals with biotinylated HLA-A2-AviTag/MelanApeptide/β2 microglobulin complex. As to the kind of experiment: flow cytometry of streptavidin M280 beads coated with the biotinylated complex (saturating, 2 µg), stained with FITC anti-HLA ABC. A general note: Flow cytometry measures light scatter and fluorescence of single cells or particles in a stream.
The target is the same in experiment [2]. As to the kind of experiment: flow cytometry of streptavidin M280 beads saturated with the biotinylated complex, stained with anti-HLA-ABC, legend of FIG. 4.
For experiment [3] the target is unchanged. The experiment in a line: flow cytometry of streptavidin M280 beads coated with 0.015 µg of the biotinylated complex, stained with FITC anti-HLA ABC.

For “streptavidin on M280 beads (Dynal) (from UniProt P22629 37-163)”, the results for the MFI in experiment [1], in experiment [2] and in experiment [3] were 300 MFI, 305 MFI and 24.5 MFI, respectively.
